Measured values published in patent EP3816180A1 (Max-Planck-Gesellschaft zur Förderung der Wissenschaften …, dated 2021).

Biological target: T1, cpHaloΔ9mer
T1 construct: Large fragment of split, circularly permuted HaloTag7; Made in E. coli; also called cpHalo_9mer; cpHalo156-141
Experiment: ITC; 9mer peptide (30 mM) titrated into cpHaloΔ9mer (0.6 mM), HEPES 50 mM pH 7.3, NaCl 50 mM; three independent measurements

T1 sequence (chain, as listed by the source mutant): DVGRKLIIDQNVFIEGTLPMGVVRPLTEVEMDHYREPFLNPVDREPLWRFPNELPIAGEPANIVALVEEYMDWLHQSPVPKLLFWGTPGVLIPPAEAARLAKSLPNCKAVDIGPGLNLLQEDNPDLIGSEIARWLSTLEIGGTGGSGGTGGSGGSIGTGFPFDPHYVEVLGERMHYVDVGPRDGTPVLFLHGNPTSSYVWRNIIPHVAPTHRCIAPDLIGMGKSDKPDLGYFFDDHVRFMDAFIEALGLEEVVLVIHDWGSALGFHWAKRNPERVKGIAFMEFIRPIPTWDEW

B1: 9mer peptide (peptide)
peptide: ARETFQAFR
notes: Free peptide titrated in ITC; also called PEP1
  Kd: 5.3 mM
